Results taken from US20250215097A1.
One block for each binder: values may come before it.

Target: human CCR8 (human) (UniProt P51685)
Assay: cell-based or functional assay

Chain of human CCR8 (human) (P51685 whole entry): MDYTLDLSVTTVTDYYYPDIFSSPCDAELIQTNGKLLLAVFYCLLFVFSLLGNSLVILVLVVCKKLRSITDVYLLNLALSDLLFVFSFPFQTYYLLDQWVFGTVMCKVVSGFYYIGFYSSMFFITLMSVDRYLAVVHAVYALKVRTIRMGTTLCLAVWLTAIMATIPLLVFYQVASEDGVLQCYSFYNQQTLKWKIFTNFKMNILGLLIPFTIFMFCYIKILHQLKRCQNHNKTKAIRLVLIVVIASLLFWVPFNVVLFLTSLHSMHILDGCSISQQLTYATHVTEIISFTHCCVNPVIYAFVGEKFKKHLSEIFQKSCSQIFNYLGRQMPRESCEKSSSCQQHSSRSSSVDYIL

ADCC EC50 (nM), PBMC FcγRIIIA158F/F effectors, HEK293-hCCR8 targets: 0.21 nM | ADCC EC50 (nM), PBMC FcγRIIIA158V/V effectors, HEK293-hCCR8 targets: 0.03 nM | ADCC maximal lysis rate, PBMC FcγRIIIA158F/F effectors, HEK293-hCCR8 targets: 61% | ADCC maximal lysis rate, PBMC FcγRIIIA158V/V effectors, HEK293-hCCR8 targets: 63%
B1: h10A11 (antibody, from another filing, V domains shown)
VH: EVQLVESGGALVKPGGSLRLSCAASGFTFSTYALYWVRQAPGKGLEWVGRIRSKSNNYATYYADSVKDRFTISRDDSKNTLYLQMNSLKTEDTAVYYCTRARFYYSDYGYAMDYWGQGTLVTVSS
VL: DIVMTQSPDSLAVSLGERATINCRSSKSLLHSNGNTYLYWYQQKPGQPPKLLIYRMSNLASGVPDRFSGSGSGTDFTLTISSLQAEDVAVYYCMQHLEYPLTFGQGTKLEIKR

ADCC EC50 (nM), NK92-CD16A effectors, HEK293-hCCR8 targets, LDH release: 0.12 nM | ADCC EC50 (nM), PBMC FcγRIIIA158F/F effectors, HEK293-hCCR8 targets: 0.19 nM | ADCC EC50 (nM), PBMC FcγRIIIA158V/V effectors, HEK293-hCCR8 targets: 0.05 nM | ADCC half-maximal effective concentration (EC50), NK92-CD16A effectors, HEK293-hCCR8 targets: 0.03 nM | ADCC maximal lysis rate, NK92-CD16A effectors, HEK293-hCCR8 targets: 30% | ADCC maximal lysis rate, PBMC FcγRIIIA158F/F effectors, HEK293-hCCR8 targets: 66% | ADCC maximal lysis rate, PBMC FcγRIIIA158V/V effectors, HEK293-hCCR8 targets: 68%
B2: m10A11 (chimera) (antibody, from another filing, V domains shown)
VH: EVQLVESGGRLVQPKGSLKLSCAASGFAFNTYALYWIRQAPGKGLEWVARIRSKSNNYATYYADSVKDRFTISRDDSQSMLYLQMNNLKTEDTAMYYCVRARFYYSDYGYAMDYWGQGTSVTVSS
VL: DIVMTQAAPSVPVTPGESVSISCRSSKSLLHSNGNTYLYWFLQRPGQSPQLLIYRMSNLASGVPDRFSGSGSGTAFTLRISRVEAEDVGVYYCMQHLEYPLTFGAGTKLELKR
